Data published in patent US20030068675, “Position dependent recognition of GNN nucleotide triplets by zinc fingers” (published 2003).

Columns and labels:
Test in all cases: EMSA
Details in all cases: tags: MBP fusion
ZFP SBS#1187 = biological target: T1, ZFP SBS#1187 (synthetic, UniProt P08047)
T1 chain: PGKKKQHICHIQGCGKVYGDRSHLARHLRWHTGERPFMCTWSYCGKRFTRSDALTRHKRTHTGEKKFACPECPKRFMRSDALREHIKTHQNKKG
In short: (§1)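 Purified ZFP was titrated against labeled double-stranded target (1 nM or lower, at least 10-fold below expected Kd) carrying the natural binding site with flanks. Binding buffer was 10 mM Tris pH 7.5, 100 mM KCl, 1 mM MgCl2, 0.1 mM ZnCl2, 5 mM DTT, 10% glycerol, 0.02% BSA, with equilibration for at least 45 min. Bound and free target were separated on a 10% polyacrylamide gel.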

ZFP SBS#1156 = biological target: T2, ZFP SBS#1156 (synthetic)
T2 chain: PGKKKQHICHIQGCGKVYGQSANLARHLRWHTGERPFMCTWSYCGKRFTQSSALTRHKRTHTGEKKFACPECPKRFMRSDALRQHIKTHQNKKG
In short: as §1

ZFP SBS#1157 = biological target: T3, ZFP SBS#1157 (synthetic)
T3 chain: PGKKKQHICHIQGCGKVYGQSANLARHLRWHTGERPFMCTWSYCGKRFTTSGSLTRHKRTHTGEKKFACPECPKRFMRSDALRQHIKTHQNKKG
In short: as §1

ZFP SBS#1189 = biological target: T4, ZFP SBS#1189 (synthetic)
T4 chain: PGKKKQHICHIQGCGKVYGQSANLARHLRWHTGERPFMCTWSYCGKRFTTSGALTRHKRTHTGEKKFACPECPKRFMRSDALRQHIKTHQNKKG
In short: as §1

ZFP SBS#1202 = biological target: T5, ZFP SBS#1202 (synthetic, UniProt P08047)
T5 chain: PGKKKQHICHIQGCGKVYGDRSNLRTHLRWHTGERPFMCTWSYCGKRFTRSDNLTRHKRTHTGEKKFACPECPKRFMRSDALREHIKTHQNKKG
In short: as §1

ZFP SBS#1207 = biological target: T6, ZFP SBS#1207 (synthetic)
T6 chain: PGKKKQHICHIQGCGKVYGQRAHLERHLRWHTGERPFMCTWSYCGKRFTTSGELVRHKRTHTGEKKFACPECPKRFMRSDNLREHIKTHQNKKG
In short: as §1

ZFP SBS#1108 = biological target: T7, ZFP SBS#1108 (synthetic)
T7 chain: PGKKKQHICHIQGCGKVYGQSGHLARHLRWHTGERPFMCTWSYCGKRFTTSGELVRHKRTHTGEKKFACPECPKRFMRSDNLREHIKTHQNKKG
In short: as §1

ZFP SBS#1205 = ZFP SBS#1205 (synthetic)
ZFP SBS#1205 (synthetic), sequence (chain, as listed by the source): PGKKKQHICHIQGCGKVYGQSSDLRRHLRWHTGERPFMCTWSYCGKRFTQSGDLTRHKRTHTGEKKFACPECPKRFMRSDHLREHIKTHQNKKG
In short: as §1

ZFP SBS#1104 = biological target: T8, ZFP SBS#1104 (synthetic)
T8 chain: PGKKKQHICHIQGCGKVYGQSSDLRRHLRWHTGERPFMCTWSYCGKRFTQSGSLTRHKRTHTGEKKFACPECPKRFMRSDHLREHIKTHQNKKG
In short: as §1

ZFP SBS#1192 = ZFP SBS#1192 (synthetic)
ZFP SBS#1192 (synthetic), sequence (chain, as listed by the source): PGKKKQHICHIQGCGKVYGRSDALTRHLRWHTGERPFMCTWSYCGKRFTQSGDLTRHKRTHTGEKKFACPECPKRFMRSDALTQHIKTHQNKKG
In short: as §1

ZFP SBS#1191 = biological target: T9, ZFP SBS#1191 (synthetic)
T9 chain: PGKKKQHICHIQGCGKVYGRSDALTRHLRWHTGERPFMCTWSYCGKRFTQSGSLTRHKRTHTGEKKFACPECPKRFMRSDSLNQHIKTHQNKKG
In short: as §1

ZFP SBS#1190 = ZFP SBS#1190 (synthetic)
ZFP SBS#1190 (synthetic), sequence (chain, as listed by the source): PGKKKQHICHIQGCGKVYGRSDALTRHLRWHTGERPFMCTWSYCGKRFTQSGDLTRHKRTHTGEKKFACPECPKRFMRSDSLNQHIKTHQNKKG
In short: as §1

ZFP SBS#1193 = biological target: T10, ZFP SBS#1193 (synthetic)
T10 chain: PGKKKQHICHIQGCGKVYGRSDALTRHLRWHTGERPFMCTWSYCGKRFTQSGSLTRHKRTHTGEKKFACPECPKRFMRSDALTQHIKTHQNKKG
In short: as §1

ZFP SBS#1186 = biological target: T11, ZFP SBS#1186 (synthetic)
T11 chain: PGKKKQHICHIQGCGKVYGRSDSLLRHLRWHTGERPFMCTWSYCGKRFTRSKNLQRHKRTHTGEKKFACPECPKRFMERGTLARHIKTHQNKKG
In short: as §1

ZFP SBS#1211 = ZFP SBS#1211 (synthetic)
ZFP SBS#1211 (synthetic), sequence (chain, as listed by the source): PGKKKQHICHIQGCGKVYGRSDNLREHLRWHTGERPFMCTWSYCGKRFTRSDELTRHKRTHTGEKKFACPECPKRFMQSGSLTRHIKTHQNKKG
In short: as §1

ZFP SBS#1179 = ZFP SBS#1179 (synthetic)
ZFP SBS#1179 (synthetic), sequence (chain, as listed by the source): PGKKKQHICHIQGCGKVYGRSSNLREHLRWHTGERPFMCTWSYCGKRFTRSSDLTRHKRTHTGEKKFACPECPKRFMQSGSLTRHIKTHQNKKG
In short: as §1

ZFP SBS#1117 = ZFP SBS#1117 (synthetic)
ZFP SBS#1117 (synthetic), sequence (chain, as listed by the source): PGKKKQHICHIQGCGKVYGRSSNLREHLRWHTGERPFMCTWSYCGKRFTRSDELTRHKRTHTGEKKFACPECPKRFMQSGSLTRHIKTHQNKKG
In short: as §1

ZFP SBS#1197 = biological target: T12, ZFP SBS#1197 (synthetic)
T12 chain: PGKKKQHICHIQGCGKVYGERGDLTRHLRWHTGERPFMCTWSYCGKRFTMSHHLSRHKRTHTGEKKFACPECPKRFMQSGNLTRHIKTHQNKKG
In short: as §1

ZFP SBS#1180 = ZFP SBS#1180 (synthetic)
ZFP SBS#1180 (synthetic), sequence (chain, as listed by the source): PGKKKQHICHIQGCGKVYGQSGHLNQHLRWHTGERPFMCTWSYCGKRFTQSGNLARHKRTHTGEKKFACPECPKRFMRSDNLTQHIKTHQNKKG
In short: as §1

ZFP SBS#1184 = biological target: T13, ZFP SBS#1184 (synthetic)
T13 chain: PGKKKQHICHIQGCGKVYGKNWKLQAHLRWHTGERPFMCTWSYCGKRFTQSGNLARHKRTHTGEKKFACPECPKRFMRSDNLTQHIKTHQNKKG
In short: as §1

ZFP SBS#1185 = biological target: T14, ZFP SBS#1185 (synthetic)
T14 chain: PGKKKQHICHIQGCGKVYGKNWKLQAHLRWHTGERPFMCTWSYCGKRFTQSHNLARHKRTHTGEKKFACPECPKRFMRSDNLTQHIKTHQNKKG
In short: as §1

ZFP SBS#1206 = ZFP SBS#1206 (synthetic)
ZFP SBS#1206 (synthetic), sequence (chain, as listed by the source): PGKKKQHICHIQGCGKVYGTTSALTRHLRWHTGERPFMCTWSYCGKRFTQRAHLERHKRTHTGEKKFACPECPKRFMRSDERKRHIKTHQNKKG
In short: as §1

ZFP SBS#1107 = ZFP SBS#1107 (synthetic)
In short: as §1

ZFP SBS#1195 = biological target: T15, ZFP SBS#1195 (synthetic)
T15 chain: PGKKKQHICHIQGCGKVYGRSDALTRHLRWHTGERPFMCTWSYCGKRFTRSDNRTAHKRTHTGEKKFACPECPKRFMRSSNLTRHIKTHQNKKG
In short: as §1

ZFP SBS#1194 = biological target: T16, ZFP SBS#1194 (synthetic)
T16 chain: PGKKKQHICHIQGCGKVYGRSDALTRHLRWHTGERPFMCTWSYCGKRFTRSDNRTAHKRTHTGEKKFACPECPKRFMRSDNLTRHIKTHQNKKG
In short: as §1

ZFP SBS#480 = biological target: T17, ZFP SBS#480 (synthetic)
T17 chain: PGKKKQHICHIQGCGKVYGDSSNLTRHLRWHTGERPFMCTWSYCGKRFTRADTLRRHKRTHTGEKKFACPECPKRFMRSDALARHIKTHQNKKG
In short: as §1

ZFP SBS#479 = biological target: T18, ZFP SBS#479 (synthetic, UniProt P08047)
T18 chain: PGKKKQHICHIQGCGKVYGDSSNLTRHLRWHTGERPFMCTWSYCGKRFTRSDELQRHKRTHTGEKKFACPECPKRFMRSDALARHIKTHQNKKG
In short: as §1

ZFP SBS#1199 = biological target: T19, ZFP SBS#1199 (synthetic)
T19 chain: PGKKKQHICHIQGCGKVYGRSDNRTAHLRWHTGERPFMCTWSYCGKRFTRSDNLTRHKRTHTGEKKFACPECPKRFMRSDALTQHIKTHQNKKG
In short: as §1

ZFP SBS#1200 = biological target: T20, ZFP SBS#1200 (synthetic)
T20 chain: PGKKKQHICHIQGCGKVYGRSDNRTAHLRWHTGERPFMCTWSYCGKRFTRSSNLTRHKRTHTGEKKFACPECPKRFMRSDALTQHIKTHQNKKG
In short: as §1

ZFP SBS#1201 = biological target: T21, ZFP SBS#1201 (synthetic)
T21 chain: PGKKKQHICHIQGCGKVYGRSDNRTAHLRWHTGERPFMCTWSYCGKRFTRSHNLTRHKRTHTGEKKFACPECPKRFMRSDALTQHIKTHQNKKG
In short: as §1

ZFP SBS#483 = ZFP SBS#483 (synthetic)
ZFP SBS#483 (synthetic), sequence (chain, as listed by the source): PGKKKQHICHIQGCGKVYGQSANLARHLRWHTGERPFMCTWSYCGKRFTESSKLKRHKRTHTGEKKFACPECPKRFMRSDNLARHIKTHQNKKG
In short: as §1

ZFP SBS#1204 = ZFP SBS#1204 (synthetic)
ZFP SBS#1204 (synthetic), sequence (chain, as listed by the source): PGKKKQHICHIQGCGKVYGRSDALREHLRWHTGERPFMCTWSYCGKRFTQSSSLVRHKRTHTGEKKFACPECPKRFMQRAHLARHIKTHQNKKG
In short: as §1

ZFP SBS#1203 = ZFP SBS#1203 (synthetic)
In short: as §1

ZFP SBS#1209 = biological target: T22, ZFP SBS#1209 (synthetic)
T22 chain: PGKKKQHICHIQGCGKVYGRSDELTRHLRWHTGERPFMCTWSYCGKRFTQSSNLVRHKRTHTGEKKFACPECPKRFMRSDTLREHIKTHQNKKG
In short: as §1

ZFP SBS#1116 = biological target: T23, ZFP SBS#1116 (synthetic)
T23 chain: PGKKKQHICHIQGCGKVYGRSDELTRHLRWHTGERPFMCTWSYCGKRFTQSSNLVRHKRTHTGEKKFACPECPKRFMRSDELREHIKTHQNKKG
In short: as §1

ZFP SBS#1188 = ZFP SBS#1188 (synthetic)
ZFP SBS#1188 (synthetic), sequence (chain, as listed by the source): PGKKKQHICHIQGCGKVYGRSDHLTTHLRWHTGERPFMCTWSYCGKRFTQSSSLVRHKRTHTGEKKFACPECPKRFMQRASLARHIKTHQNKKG
In short: as §1

ZFP SBS#1151 = ZFP SBS#1151 (synthetic)
ZFP SBS#1151 (synthetic), sequence (chain, as listed by the source): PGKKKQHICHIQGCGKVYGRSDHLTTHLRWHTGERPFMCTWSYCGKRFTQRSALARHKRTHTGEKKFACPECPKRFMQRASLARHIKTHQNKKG
In short: as §1

B1: CTGGTGGGC (dsDNA)
DNA 1: CTGGTGGGC
DNA 2: GCCCACCAG
Kd (ZFP SBS#1187): 0.006 nM

B2: ATGGTTGAA (dsDNA)
DNA 1: ATGGTTGAA
DNA 2: TTCAACCAT
Kd (ZFP SBS#1156): 7.2 nM
Kd (ZFP SBS#1157): 0.885 nM
Kd (ZFP SBS#1189): 1.51 nM

B3: CTGGAGTAC (dsDNA)
DNA 1: CTGGAGTAC
DNA 2: GTACTCCAG
Kd (ZFP SBS#1202): 2.83 nM

B4: CAGGCTGGA (dsDNA)
DNA 1: CAGGCTGGA
DNA 2: TCCAGCCTG
Kd (ZFP SBS#1207): 0.45 nM
Kd (ZFP SBS#1108): 0.007 nM

B5: CGGGCAGCT (dsDNA)
DNA 1: CGGGCAGCT
DNA 2: AGCTGCCCG
Kd (ZFP SBS#1205): 0.9 nM
Kd (ZFP SBS#1104): 0.08 nM

B6: ATGGCAGTG (dsDNA)
DNA 1: ATGGCAGTG
DNA 2: CACTGCCAT
Kd (ZFP SBS#1192): 2.36 nM
Kd (ZFP SBS#1191): 5.33 nM
Kd (ZFP SBS#1190): 1.48 nM
Kd (ZFP SBS#1193): 3.12 nM

B7: GCCGAGGTG (dsDNA)
DNA 1: GCCGAGGTG
DNA 2: CACCTCGGC
Kd (ZFP SBS#1186): 27.5 nM

B8: GCAGCGCAG (dsDNA)
DNA 1: GCAGCGCAG
DNA 2: CTGCGCTGC
Kd (ZFP SBS#1211): 6.5 nM
Kd (ZFP SBS#1179): 2.73 nM
Kd (ZFP SBS#1117): 2.85 nM

B9: GAAGGTGCC (dsDNA)
DNA 1: GAAGGTGCC
DNA 2: GGCACCTTC
Kd (ZFP SBS#1197): 14.8 nM

B10: AAGGAAAGA (dsDNA)
DNA 1: AAGGAAAGA
DNA 2: TCTTTCCTT
Kd (ZFP SBS#1180): 4.83 nM
Kd (ZFP SBS#1184): 2.79 nM
Kd (ZFP SBS#1185): 5.25 nM

B11: GCGGGAGTT (dsDNA)
DNA 1: GCGGGAGTT
DNA 2: AACTCCCGC
Kd (ZFP SBS#1206): 0.034 nM
Kd (ZFP SBS#1107): 0.06 nM

B12: GAGAAGGTG (dsDNA)
DNA 1: GAGAAGGTG
DNA 2: CACCTTCTC
Kd (ZFP SBS#1195): 2.8 nM
Kd (ZFP SBS#1194): 2.19 nM

B13: GTGGCGGACC (dsDNA)
DNA 1: GTGGCGGACC
DNA 2: GGTCCGCCAC
Kd (ZFP SBS#480): 5 nM
Kd (ZFP SBS#479): 8.5 nM

B14: ATGGAGAAG (dsDNA)
DNA 1: ATGGAGAAG
DNA 2: CTTCTCCAT
Kd (ZFP SBS#1199): 3.43 nM
Kd (ZFP SBS#1200): 16.9 nM
Kd (ZFP SBS#1201): 14.8 nM

B15: GAGGGCGAAG (dsDNA)
DNA 1: GAGGGCGAAG
DNA 2: CTTCGCCCTC
Kd (ZFP SBS#483): 130 nM

B16: GGAGTACTG (dsDNA)
DNA 1: GGAGTACTG
DNA 2: CAGTACTCC
Kd (ZFP SBS#1204): 4.38 nM
Kd (ZFP SBS#1203): 2.94 nM

B17: CCGGAAGCG (dsDNA)
DNA 1: CCGGAAGCG
DNA 2: CGCTTCCGG
Kd (ZFP SBS#1209): 19.3 nM
Kd (ZFP SBS#1116): 12.3 nM

B18: GTAGTATGG (dsDNA)
DNA 1: GTAGTATGG
DNA 2: CCATACTAC
Kd (ZFP SBS#1188): 2.74 nM
Kd (ZFP SBS#1151): 1.63 nM
